Data as given in patent US20150064134A1.

Molecular target: CK2α2(h) (human) (UniProt P19784)
Assay: cell-based or functional assay

MMI-0400 (peptide)
% activity at 100 µM: 96%
